The values that follow come from PMC4810211, “DNA Aptamers against Taiwan Banded Krait α-Bungarotoxin Recognize Taiwan Cobra Cardiotoxins”.

One data set concerns the target T1, cardiotoxin 3 (CTX3) (Naja atra (Taiwan cobra), UniProt P60301 22-81).
T1 sequence: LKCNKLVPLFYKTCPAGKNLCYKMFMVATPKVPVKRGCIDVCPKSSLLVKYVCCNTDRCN
The data set can be described thus: fluorescence quenching titration; 10 mM Tris-HCl pH 7.5, 1 mM EDTA, 100 mM NaCl; temperature not stated; fluorescence with 4 nM aptamer (ex 480/em 520 nm); EMSA with 5 uM aptamer, 20 min, 2% agarose, TAE. As to conditions: protein: native, tags: none, label: 5'-FAM. (In EMSA bound probe runs differently from free probe, usually more slowly.)

Data set [1] has as its target alpha-bungarotoxin (α-Bgt) (Bungarus multicinctus (Taiwan banded …, UniProt P60615 22-95)). As to the kind of experiment: fluorescence quenching titration; 10 mM Tris-HCl pH 7.5, 1 mM EDTA, 100 mM NaCl; temperature not stated; […]. As to conditions: protein: native; tags: none; label: 5'-FAM.
The target in another data set is T2, cardiotoxin 1 (CTX1) (Naja atra (Taiwan cobra), UniProt P60304 22-81).
T2 sequence: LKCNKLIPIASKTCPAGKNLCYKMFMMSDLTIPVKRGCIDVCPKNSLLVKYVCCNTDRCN
As to the kind of experiment: fluorescence quenching titration; 10 mM Tris-HCl pH 7.5, 1 mM EDTA, 100 mM NaCl; temperature not stated; fluorescence with 4 nM aptamer (ex 480/em 520 nm); EMSA with 5 uM aptamer, 20 min, 2% agarose, TAE. As to conditions: protein: native; tags: none; label: 5'-FAM.

Another data set deals with T3, cardiotoxin 2 (CTX2) (Naja atra (Taiwan cobra), UniProt P01442 22-81).
T3 sequence: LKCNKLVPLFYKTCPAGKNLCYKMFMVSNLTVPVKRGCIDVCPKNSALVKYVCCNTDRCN
Described as above. The settings on record: protein: native; tags: none; label: 5'-FAM.

Another data set addresses T4, cardiotoxin 4 (CTX4) (Naja atra (Taiwan cobra), UniProt P01443 22-81).
T4 sequence: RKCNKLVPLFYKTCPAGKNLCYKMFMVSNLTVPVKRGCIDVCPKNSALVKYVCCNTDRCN
The description is as above. As to conditions: protein: native; tags: none; label: 5'-FAM.

The target in the next data set is T5, cardiotoxin N (CTXN) (Naja atra (Taiwan cobra), UniProt P80245 22-81).
T5 sequence: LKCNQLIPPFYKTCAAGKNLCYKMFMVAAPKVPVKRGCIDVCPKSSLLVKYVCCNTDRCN
As to the kind of experiment: fluorescence quenching titration; 10 mM Tris-HCl pH 7.5, 1 mM EDTA, 100 mM NaCl; temperature not stated; […]. The settings on record: protein: native; tags: none; label: 5'-FAM.

In data set [2] the target is T6, cardiotoxin-like protein (CLBP) (Naja atra (Taiwan cobra), UniProt P62375 22-83).
T6 sequence: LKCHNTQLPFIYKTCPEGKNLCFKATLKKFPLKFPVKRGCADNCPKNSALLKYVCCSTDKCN
The data set is described as above. As to conditions: protein: native; tags: none; label: 5'-FAM.

The target of the next data set is T7, cardiotoxin 5 (CTX5) (Naja atra (Taiwan cobra), UniProt Q98961 22-81).
T7 sequence: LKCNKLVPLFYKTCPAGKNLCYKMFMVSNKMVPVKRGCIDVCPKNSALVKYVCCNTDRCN
Described as above. As to conditions: protein: native; tags: none; label: 5'-FAM.

Chain of alpha-bungarotoxin (α-Bgt) (Bungarus multicinctus (P60615 22-95): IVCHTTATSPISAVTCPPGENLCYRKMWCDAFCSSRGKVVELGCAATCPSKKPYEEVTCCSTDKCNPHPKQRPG

Usually Kd stands for the constant that tells how readily two partners part at equilibrium. As for ATCATGTCTTTTCGGGATGGGCAAGAAGGGAAATAATGC (ssDNA) [FAM-bgt3], the dissociation constant Kd in the data set with cardiotoxin 3 (CTX3) was found to be 1260 nM; in data set [1] it was 140 nM.

GCGAGGTGTTCGAGAGTTAGGGCGACATGACCAAACGTT (ssDNA) [FAM-bgt1]: the dissociation constant Kd with cardiotoxin 1 (CTX1) stood at 2510 nM; with cardiotoxin 3 (CTX3), 2250 nM; in the data set with cardiotoxin 2 (CTX2) it was 6290 nM; with cardiotoxin 4 (CTX4), 8130 nM; in the data set with cardiotoxin N (CTXN) it was 8850 nM; in data set [2], 7190 nM. In addition, the Kd came to 17200 nM with cardiotoxin 5 (CTX5) and 2210 nM in data set [1].

GCGAGGTGTTCGAGAGTTAGGGCGACATGACCAAACGTT (ssDNA) [FAM-bgt1-DABCYL]: the dissociation constant (Kd) with cardiotoxin 3 (CTX3) (3'-DABCYL) was 2350 nM.

Regarding AGAAACGTAGCGGTAACTGCTAGAATGCGCCGAGAGAGCG (ssDNA) [FAM-bgt4], the values for the Kd (with cardiotoxin 3 (CTX3); in data set [1]) were 1170 nM and 280 nM, respectively.

As for AGGGCACAGAGAAGAAGTCGTGGATTTGAATGGTTTTGGT (ssDNA) [FAM-bgt2], the dissociation constant Kd was found to be 260 nM with cardiotoxin 3 (CTX3) and 460 nM in data set [1].
